According to patent US20170058005A1 (priority 2014, published 2017):
Where no end group is shown, it is not given here.

Legend:
DRB1*0701 (DR7) = DRB1*0701 (DR7) (Homo sapiens, UniProt P01903+P01911, A100R/A102G/A103Q/D57E/D86V/E43K/F76Y/K127E/L162R/M171V/P40G/Q125H/Q99D/R33Q/R42Y/R54Q/S133A/S66F/T210M/V115G/Y107V/Y59L/Y89S); type: binding
DRB1*1301 (DR13) = DRB1*1301 (DR13) (Homo sapiens, UniProt P01903+P01911, A100E/A169T/K41T/L162R/M171V/P40S/Q125H/Q178H/Q39Y/Q99D/R42S/S66N/T262R/W38E/Y61H); type: binding
DRB1*1101 (DR11) = DRB1*1101 (DR11) (Homo sapiens, UniProt P01903+P01911, A100R/A169T/A87E/I96F/K41T/L162R/M171V/P40S/Q125H/Q178H/Q39Y/Q99D/R42S/S66Y/T262R/V115G/W38E); type: binding
DRB1*1501 (DR15) = DRB1*1501 (DR15) (Homo sapiens, UniProt P01903+P01911); type: binding
DRB1*0401 (DR4) = DRB1*0401 (DR4) (Homo sapiens, UniProt P01903+P01911, A100K/A169T/F76Y/I96L/K127E/L162R/M171V/N62H/P40V/Q125Y/R42H/S133A/S149N/S66Y/V115G/V209L/W38E); type: binding
[1] = system: CD4^+ T cells of HLA class II transgenic mice; type: cell-based
DRB1*0101 (DR1) = DRB1*0101 (DR1) (Homo sapiens, UniProt P01903+P01911, A100R/D57E/F55L/F60I/F76Y/I96L/L162R/M171V/P40L/Q125E/R42F/V115G/Y59C); type: binding
DRB1*0301 (DR3) = DRB1*0301 (DR3) (Homo sapiens, UniProt P01903+P01911, A100K/A102G/A103R/A169T/F55Y/I96L/K41T/L162R/M171V/P40S/Q125H/Q178H/Q39Y/R42S/S66N/T106N/T262R/W38E/Y61H); type: binding

Sequence	Relative binding affinity of peptide to HLA-DR molecules, DR7 (DRB1*0701 (DR7))	Relative binding affinity of peptide to HLA-DR molecules, DR13 (DRB1*1301 (DR13))	Relative binding affinity of peptide to HLA-DR molecules, DR11 (DRB1*1101 (DR11))	Relative binding affinity of peptide to HLA-DR molecules, DR15 (DRB1*1501 (DR15))	Relative binding affinity of peptide to HLA-DR molecules, DR4 (DRB1*0401 (DR4))	CD4 T cell response in LF immunized HLA transgenics [1]	HLA-restriction based on CD4 T cell response class II HLA transgenics after priming with LF [1]	Relative binding affinity of peptide to HLA-DR molecules, DR1 (DRB1*0101 (DR1))	Relative binding affinity of peptide to HLA-DR molecules, DR3 (DRB1*0301 (DR3))	IC50 (DRB1*1301 (DR13); read-out: IC50 of reference peptide) [nM]
AVDDYAGYLLDKNQSDLVTN	1,789	>2 733	55	0.1	10	HLA-DR4 and HLA-DR15 restricted	DR4, DR15	1,380	42	
DTGGLIDSPSINLDVRKQYK	15	8	179	130	935		DR15	866	0.3	
EIMKHIVKIEVKGEEAVKKE	249	19	4	329	567		DQ8	243	50	
IGLEIKDVQIIKQSEKEYIRIDAKVVP	7	24	73	1	919		DR1, DR15	1	2	
KELLNRIQVDSSNPLSEKEK	36	1,714	274	1	0		DQ8	146	1	
KLITFNVHNRYASNIVESAY	72	0.5	7	5	3		DR1, DR4	35	0.4	
LLFTNQLKEHPTDFSVEFLE	51	>172	148	193	6		DQ8	909	>76	
NEQEINLSLEELKDQRMLSR [LF 281-300]						did not induce a response in any of the HLA transgenics				
PEAFNYMDKFNEQEINLSLE	42	>172	2	463	2		DQ8	2156	>76	
PKSKIDTKIQEAQLNINQEW [LF584-603]						did not induce any response in any of the HLA transgenics				
RNKTQEEHLKEIMKHIVKIE	77	8	2	>2 184	>1 539		DQ8	4810	>76	
SEGFIHEFGHAVDDYAGYLL	131	>2 733	849	0.04	46	immunodominant epitopes in HLA-DR15 transgenics	DR15	5	>1 000	
SKKFIDIFKEEGSNLTSYGR	302	1,225	0.4	1	0.2	HLA-DR4 and HLA-DR15 restricted	DR4	4	474	
TERVRLVTRHIYNREE [B1 21-36, reference compound]										37
VLVIQSSEDYVENTEKALNV	66	>172	168	958	29		DR1	1702	82	
YGKDALLHEHYVYAKEGYEP	441	6	9	4000	168		DQ8	199	>76	
YLVDGNGRFVFTDITLPNIA	19	>2 733	45	2	0.3	elicited a T cell response in a single HLA transgenic strain	DR4	123	0.3	
